The values that follow come from PMC5764952 (2018).

The target of the test is Untagged murine saposin A (SapA) (mouse). As to the kind of experiment: crystal structure; complex formed at pH 5.0 with the detergent LDAO, SapA:GALC molar ratio 2:1; crystals at 20 °C from 75 mM sodium citrate pH 5.6, 11% PEG 3350; 3.6 Å.

As a reminder, the stoichiometry N is a count of units in the complex or per binding partner.

On to “Untagged murine saposin A (SapA) (natural protein)”, for which the stoichiometry N amounted to 2.
